Data as given in US20230272049A1.

Experiments:
[1] = target: 108 of 110 HLA types; assay: cell-based or functional assay
[2] = target: the alloreactive alleles (2 of 110 HLA types); assay: cell-based or functional assay

B1: E7-11-28 MGTM (MG-modified TCR E7-11-28) (TCR)
TCR alpha: GQQVMQIPQYQHVQEGEDFTTYCNSSTTLSNIQWYKQRPGGHPVFLIQLVKSGEVKKQKRLTFQFGEAKKNSSLHITATQTTDVGTYFCAGIGSSNTGKLIFGQGTTLQVKPDIQNPDPAVYQLRDSKSSDKSVCLFTDFDSQTNVSQSKDSDVYITDKTVLDMRSMDFKSNSAVAWSNKSDFACANAFNNSIIPEDTFFPSSDVPCDVKLVEKSFETDTNLNFQNLLVIVLRILLLKVAGFNLLMTLRLWS
TCR beta: EPEVTQTPSHQVTQMGQEVILRCVPISNHLYFYWYRQILGQKVEFLVSFYNNEISEKSEIFDDQFSVERPDGSNFTLKIRSTKLEDSAMYFCAITGRVSYEQYFGPGTRLTVTEDLNKVFPPEVAVFEPSKAEIAHTQKATLVCLATGFFPDHVELSWWVNGKEVHSGVSTDPQPLKEQPALNDSRYCLSSRLRVSATFWQNPRNHFRCQVQFYGLSENDEWTQDRAKPVTQIVSAEAWGRADCGITSASYHQGVLSATILYEILLGKATLYAVLVSALVLMAMVKRKDFGSGRAKRSGSG
An inhibition on target cell growth after 48 h of co-culture (alloreactivity screen) (% target cell inhibition) [1] of less than 20 and an inhibition on target cell growth after 48 h of co-culture (alloreactivity screen) (% target cell inhibition) [2] greater than 20 were found for B1 in this work.
